In the DeepSol protein solubility set:

Experiment: soluble on expression in E. coli; label from the status in PepcDB or PDB records

Sequence	soluble on expression in E. coli
MSEKTYELATFAGGCFWCMVKPFDELPDIHKVLSGYAGGHVENPTYEQVKAGTSGHLEVVQITFDPSIFPYEKLLNLYWPQIDPTDDGGQFFDRGPSYRTAIFYHTETQKELAEKSKHSLAESGMFKDPIVTEIRPAAPFYEAEEYHQHFYKKNPEKYATEQKESGREDFIKENWQKK	not soluble
MPDSPVDVKTQSRLTPPTMPPPPTTQGAPRTSSFTPTTLTNGTSHSPTALNGAPSPPNGFSNGPSSSSSSSLANQQLPPACGARQLSKLKRFLTTLQQFGNDISPEIGERVRTLVLGLVNSTLTIEEFHSKLQEATNFPLRPFVIPFLKANLPLLQRELLHCARLAKQNPAQYLAQHEQLLLDASTTSPVDSSELLLDVNENGKRRTPDRTKENGFDREPLHSEHPSKRPCTISPGQRYSPNNGLSYQPNGLPHPTPPPPQHYRLDDMAIAHHYRDSYRHPSHRDLRDRNRPMGLHGTRQEEMIDHRLTDREWAEEWKHLDHLLNCIMDMVEKTRRSLTVLRRCQEADREELNYWIRRYSDAEDLKKGGGSSSSHSRQQSPVNPDPVALDAHREFLHRPASGYVPEEIWKKAEEAVNEVKRQAMTELQKAVSEAERKAHDMITTERAKMERTVAEAKRQAAEDALAVINQQEDSSESCWNCGRKASETCSGCNTARYCGSFCQHKDWEKHHHICGQTLQAQQQGDTPAVSSSVTPNSGAGSPMDTPPAATPRSTTPGTPSTIETTPR	soluble
SSTIGSFEGFQAVSLKQEGDDQPSETDHLSMEEEDPMPRQISRQSSVTESTLYPNPYHQPYISRKYFATRPGAIETAMEDLKGHVAETSGETIQGFWLLTKIDHWNNEKERILLVTDKTLLICKYDFIMLSCVQLQRIPLSAVYRICLGKFTFPGMSLDKRQGEGLRIYWGSPEEQSLLSRWNPWSTEVPYATFTEHPMKYTSEKFLEICKLSGFMSKLVPAIQNAHKNSTGSGRGKKLMVLTEPILIETYTGLMSFIGNRNKLGYSLARGSIGF	soluble
MGSDKIHHHHHHMPDTEEIARDSVVPPDVRRQAVNWLVELQSDIVTDETRDQWQKWRMSHPDHEYAWQQVEVFSRKLRGLPSPLAHAALTPPHSSSRRRAIKALTVLIFLGGGTWVAGEGRLWCWWPEDYCTGIGEHRAVTLSDGTGIELNSGSAITVNFDDTRRLIRLMNGEIMVTTAPDPRLANGIGAARPLLIETAQGILRAIGTRFTVRQFDVSQQGKSSVAVFEGAVEIQPITGRLRQLEVGQQAAFTRDGVIAVGMACEADTAWRQGMIVARDMPLIDFLAELGRHRSGWLSCDPAVAQLKVTGTYPLADIGKILAILQKTLPIDVQLFTRYWIRVGARQEDT	not soluble
MSNTERTFIAIKPDGVHRGLVGKIIARFEERGYKLVALKQMTASKAHLEVHYQDLKDKPFFPSLIEYMSSGPVVAMVWQGLDVVKQGRSMLGATNPLASAPGTIRGDFCIQTGRNICHGSDAVDSANREIAHWFKQEEINDYASPFINSWVYE	not soluble
VDYSRTETLQFEDDEYYYYVKAVPKVGVTLPEKQVKHITEPHEEQPKEAKAAVNLKPEPMVQETVAIDTSQIQEADLEKNVDELLLTQSLNEELRQNQNEPEDDLSLTKSLGDLWTKKPGSGE	not soluble
MGSDKIHHHHHHMKKLIAIDLDGTLLNEKSTISEENTESLQRAQEAGMEVVIATGRAYFDVIDLLKPTGMHPWVIGANGATIHDPTGRRLLSIPLEHKQAIEILHWLEGKHFYYEVFSDEAIFTPQNGRELLAIEMDRLVSANPQTDLGTLSQAAAKQFSQTGFSYVSSYRDLLDTEVNIYNILAFSFDDQKLAKGWDRFKQTDNVTLVTSAEHNFELEHPLASKGNALTWLAKHLHIPLEHTVAIGDSMNDYSMITIAGYSIAMGNARAEIKQISHEVTLSNYEHGVSHSIERLLAAKRLGQN	not soluble
MDGELKNLKCNISQLAAITGLHRQTVVSRLSGVPLAPGSNEKNKLYLLTDVIRVLMEAPVSQAAEHQDPNKMTPKERKDWFDSEKGRLWLEKEMKQVVPLPEVRQQMAAIVKAITQVLEVWPDKLERDKGWSADQLNEAQDVVDEVRILLVKAIQETADDDGE	not soluble
MSLDRFVVTYRIVAEDEADAAARAASIALEDTVEIPRDVVPAGYVEDVVLGRVESVTARGGGVWTALIGYHVDAVGRELPQLLNVILGNASILRGVKAVDLAPDAALAERFPGARFGAAGVRRLTGRASGGFVCPVIKPQGSSAETLARLCYLSAVAGADIVKEDHGLANQDAAPFRERIGACAEAVGRANAERRDQGDTTQALYFANLCGPPHQLRDQAYYAKESGAHGILLIPGLHGFDAMFELAQDPDFDLPIMAHPSHLGPYVLSPDHGYGHGMLFGQLMRLAGADISVFPNHGGRFGFSVDECEEIVRACRDPEGLGPAILPSPGGGMSPERLPDMMAQYGEDCVYLLGGSLLRAGDRIGELIAEMRAALSGRDEGHHHHHH	soluble
GPGSMLVPGYGSHLLRFGSTWVYITRAEDPSKQKAAAANRVDRENDKLTLTFFTRRRAVVQQFMKHVQESWRANVRNTVHIYLSEGYGPRWHLLSERIRRPLSTLYLPADTKAVVEEARLFLRLKDTYAALGIPWRRGYLLEGPPGTGKTSFVMALAGELGLPVHILSLRSANMDDDALLSLTSSLPRRSILLIEDLENVLKTPPGAGRSALSSGASDTAAVAAAETSAASPASPYSTDIGGGPRSAMSLSALLNALDGVSSSEGRLLLITTNDTSRIPFAEVLLRPGRVDRRIRFQPLHVEQLREMEASFQQALQASPCSAVENPRLPSARPSAHEDDRSVACTPAQYQQRLLDAVYASLTSRPRAESK	not soluble
MKTIGLLGGMSWESTIPYYRLINEGIKQRLGGLHSAQMLLHSVDFHEIEECQRRGEWDKTGDILAEAALGLQRAGAEGIVLCTNTMHKVADAIESRCTLPFLHIADATGRAITGAGMTRVALLGTRYTMEQDFYRGRLTEQFSINCLIPEADERAKINQIIFEELCLGQFTEASRAYYAQVIARLAEQGAQGVIFGCTEIGLLVPEERSVLPVFDTAAIHAEDAVAFMLS	not soluble
MTGRLQNKVIVITGASSGIGEQVAMQVAEQGATPVLMARTEEKLKALADKIKETYNTPCYYYVLDVSEETEVQSVFSKVLQEVGRIDILVNNAGFGIFKTFEDASMDEVKDMFQVNVFGLVACTKAVLPYMVKRNEGHIINIASLAGKIATPKSSAYAATKHAVLGFTNSLRMELSSTNVFVTAINPGPIDTNFFEIADQSGTYVKNMGRYMLKPTYVAEQIVKSMQTKKREVNLPKWMGIGPKLYALFPGLFERVAGKSLSKK	not soluble
MGGDMHEITLCQRALELIEQQAAKHGAKRVTGVWLKIGAFSCVETSSLAFCFDLVCRGSVAEGCKLHLEEQEAECWCETCQQYVTLLTQRVRRCPQCHGDMLQIVADDGLQIRRIEIDQE	not soluble
MTLHLPGADGTLRAYEPRTEPLPTLRATSGSAFSSRTVFSAAHVVADPYADTTPDGPAAVDWDATLAFRRHLWSHGLGVAEAMDTAQRGMGLDWPTAAELIRRSAAEARATGGRIACGVGTDQLTATAATLADVRSAYEEQLAVVEESGAQAILMASRALAATAKGPDDYLEVYGHLLRQAAEPVILHWLGPMFDPALEGYWGSSDLDAATDTFLEVIAAHPDKVDGIKVSLLDAQREIDLRRRLPRGVRCYTGDDFNYPELIAGDEQGFSHALLGIFDPLGPLAAEAVRVLDTGDTDGFRALLDPTVELSRHLFRAPTRYYKTGVVFLAWLAGHQSHFTMVGGLQSARSLPHLARAYELADGLGLFPDPKPAEERMRNLLALYGVN	not soluble
MKKLEIEFEQVVKQYKNTIYTVCFMFSKDSREVNDLFQDVLVNLWKGFDTFKGESNIGTWIWRVSLNTCISSDRKKKIVSVPLIMGIDLFEDRDEDTTQIKMLYNRISRLKHFDRAIVLLWLENFSYEEIAAIVGISVKNVSVRLFRIKEELKKMSNN	not soluble
MSLADLTFPSLSYRTGPYAAGGIPFADGYADYFTLLNERDGGIGGVKANVLECETGYNTEKGVECYESTKGQGALVYQPLSTGITYQLIPKATADGIAIHSMGYGRTSAKNGNVFSHVFNYPANYWDGASGAVNYLLEINGGDIKGKKIALVYHNSAYGKEPIRTLEELSKKHGFDLSTLPVDHPGQEQKSQWLQIRRDKPDYVLMWGWGVMNQVAVQEAANIRFPMENFIGIWWSGSENDVLPAGDAANGYKALTFHNVGTAFPLFDDLQKYVIDAGKAAGAGDQVGTVLYNRGLYAAMLAAEAAKKAQEISGKADITAADMRDGMEALEMTEAKMAELGLPNFGPTFSVSCGNHGGDALVGVTQWDATSKTWSLISDFKPTDGDVIGALIEEDSSAYASENNISPRCNEGHHHHHH	soluble
MSDRHFDELATRFAEKIYGGAKGAIRLAVLQADLAEALPERPLRVLDIGAGLGHMSLWLAARGHRVTLAEPAQPMLDGARQRFAEAGQAAEFIQAPWQELLGQLTEPYDLVLCHAVLEWLAEPHAILPVLHQLCAPGGWLSLAFYNRDALIYRNLLKGHFRKLRKERFAGEGQSLTPQRPLDPRELEQALAARWRIEARSGVRVFHDYMPSEFQAKAERLDLVEMELAYRRHPAFAGLGRYLHWLCRPQ	not soluble
MAIPKLQSYALPTALDIPTNKVNWAFEPERAALLIHDMQDYFVSFWGRNCPMMDQVIANIAALRQYCKEHHIPVYYTAQPKEQSDEDRALLNDMWGPGLTRSPEQQKVVEALTPDEADTVLVKWRYSAFHRSPLEQMLKDTGRNQLIITGVYAHIGCMTTATDAFMRDIKPFMVADALADFSREEHLMALNYVAGRSGRVVMTESLLPTPVPASKAALRALILPLLDETDEPLDDENLIDYGLDSVRMMGLAARWRKVHGDIDFVMLAKNPTIDAWWALLSRGVE	not soluble
MSKPEFIARQGRKPTGWLGHIVARVMARETRPENDRALSFLDLADGDSLIDIGCGHGETLFQADRIVRLSGSVGVDFSEVMLKRARARNRDAVWDTRMAFHCADTAALPFPDKRFGKALSVHTIYFWPNPAAHLAEAFRVLRRGGRFLFCYRSTADRRAVEEFPDTVYRFPSVQEVEEKLKLVGFLGPETTTEDIKGLEHHHHHH	not soluble
MLHLPTIETSSAGRRRRKANSEVDSGAEEPTATSSSDDKSDYRLDLKKRLTTFLTSNSQMASSDSGVSGVESTVEHDLSELKASDSPMSHDGADSPRPELDRTDIVVCGECHTSFSLSCFSNFIEHKVSNCGGKLTPSDDCEVTPRNFDRSRRRTFNPAALIRCGRSTSANALLPNYNMDVTTDTNDLGSSSKSLTCCNCKERFGDVWTLLKHSYDIHGLRVCQEAIPESDVSVTSTSSPTSNESMHMSSRYNHNDTSSKIMHQTIKSESTMMNSFCSERLKEIVTRAGEQDQKPLMALRRLMPSEETEEEQVSAFTSTSLLNSRASQPQLPTVSSSAGFQTSGSMPNVWMQPSMLAAMQEYYASIQQMPYPMTNSTAVALLNISNNLQQQQQQQQQLQQQQQNLIAAQPQVATPQPPAPTPLFQSLNRLSTADESSYTPRPASVAIRRRASPEEELTPPRKSMKIEEEDQLIVVDDGELAEPAARKPNNIKKERCNFCNKVFTNRSNLIVHLRSHTGEKPYKCQLCPYACAQSSKLTRHMRTHGQQGKETYHCYICRMPFSVHSTLEKHMRKCVVSTQGRREGGSPPERSIRPTPSALAEATSLLALSAPSISVPPQPQASTVGQNQSQSHQIVLNWLHALNASNSTPTATSKEDMIEADEDMEETEASDLQSHQPLTSESNQIATVAN	not soluble
MGSDKIHHHHHHISYPLPPEGSRLVGSAFTIAVPDNNTQPLESFAAQYGQGLSNMLEANPGVDVYLPRSGSTLTIPQQLILPDTVREGIVINVAEMRLYYYPPLGNSVEVLPIGIGQAGRETPRNWVTAVERKQEGPTWVPTANTRREYAKEGKTLPAMVPPGPDNPMGLYAIYIGRLYAIHGTNANFGIGLRVSQGCIRLRNDDIKFLFDNVPVGTRVQLIDQPVKYSVEPDGSHWLEVHEPLSRNRAEFESDRKVPLPMTSALRDFTQGPGVSPAQVEQTLQRRSGMPVNISATAAQGSL	not soluble
